{
  "source": "paper PMC2987830",
  "key": {"[1]": {"target": "C-terminal truncated Myc-hFcγRIa which lacks the cytoplasmic tail (human) (UniProt P12314)", "sequence (P12314 16-314)": "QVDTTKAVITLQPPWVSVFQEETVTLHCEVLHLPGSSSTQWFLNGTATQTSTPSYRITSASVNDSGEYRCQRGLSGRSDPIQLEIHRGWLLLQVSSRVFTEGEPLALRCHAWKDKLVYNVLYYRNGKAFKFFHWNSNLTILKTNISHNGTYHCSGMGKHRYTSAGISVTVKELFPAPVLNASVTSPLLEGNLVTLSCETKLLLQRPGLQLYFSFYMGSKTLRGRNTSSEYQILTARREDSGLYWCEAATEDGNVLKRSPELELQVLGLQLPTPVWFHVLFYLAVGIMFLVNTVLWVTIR", "experiment": "adhesion of bacteria to transfected cells (total cell associated bacteria); COS-1 monolayers transfected with Myc-hFcγRIa, Myc-hFcγRIa-CT, Myc-hFcγRII or pcDNA3 (mock); E. coli K1 at an MOI of 100, 1.5 h, 37°C; cell associated bacteria plated"}, "[2]": {"target": "FcγRIa of RAW 264.7 cells (mouse (endogenous in RAW 264.7)) (UniProt P26151)", "sequence (P26151 25-404)": "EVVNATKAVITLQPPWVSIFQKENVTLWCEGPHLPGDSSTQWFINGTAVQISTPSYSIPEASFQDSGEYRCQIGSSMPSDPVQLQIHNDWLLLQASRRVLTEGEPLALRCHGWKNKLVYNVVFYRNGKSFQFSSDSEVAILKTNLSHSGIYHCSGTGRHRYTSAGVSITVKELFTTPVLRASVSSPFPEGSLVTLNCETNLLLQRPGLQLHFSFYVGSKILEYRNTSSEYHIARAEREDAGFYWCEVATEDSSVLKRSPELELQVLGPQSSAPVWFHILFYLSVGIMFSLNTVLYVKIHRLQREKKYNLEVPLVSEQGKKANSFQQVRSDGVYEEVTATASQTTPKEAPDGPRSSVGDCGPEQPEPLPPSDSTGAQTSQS"}},
  "data": [
    {"substance": "outer membrane protein A (OmpA) of E. coli K1 (from UniProt P0A910 22-346) (natural protein)", "values": [
      {"measurement": "decrease of bacterial binding against Myc-hFcγRIa+/COS-1 cells", "setting": "[1]", "value": 30, "unit": "%"},
      {"measurement": "reduction of intracellular E. coli K1 in RAW 264.7 cells (gentamicin protection assay) by Fab fragments of anti-OmpA antibody or by anti-FcγRI antibody", "setting": "[2]", "value": 80, "unit": "%"}
    ]}
  ]
}
